Experimental findings from patent US20120316071A1 (published 2012) are described below.

The target in test [1] is T1, Recombinant Human DLL4 (R&D Systems Cat#1506-D4/CF) (human, UniProt Q9NR61 27-524).
T1 construct: Bought recombinant protein; also called delta-like protein 4; Delta-like 4
The test can be described thus: ECL (Meso Scale Discovery) multispot binding assay, DLL4 immobilised, Fab at 100 nM.

For test [2], the target named is T1, Recombinant Human DLL4 (R&D Systems …). In words: ELISA, DLL4 coated on plate, Fab at 2.22 nM.
Test [3] has the same target. In words: ELISA, DLL4 coated on plate, Fab at 6.67 nM. Background: ELISA stands for enzyme-linked immunosorbent assay.
For test [4] the target is unchanged. The test can be described thus: ELISA, DLL4 coated on plate, Fab at 20 nM.
For test [5] the target is unchanged. In words: ELISA, DLL4 coated on plate, Fab at 0.74 nM.
The target in test [6] is T2, Recombinant Human DLL4 (R&D Systems Cat#1506-D4/CF) (human, UniProt Q9NR61 27-529).
T2 construct: Bought recombinant protein; also called rHuman DLL4; delta-like protein 4
In words: 96-well plate ECL (MSD) assay, DLL4 coated on plate, Fab at 0.04 µM; ECL signal on DLL4 over signal on blank well.

Test [7] has as its target T2, Recombinant Human DLL4 (R&D Systems …). The test can be described thus: surface plasmon resonance, Fab against recombinant human DLL4; standard deviation in parentheses.
In test [8] the target is T3, Recombinant Human DLL4 (delta-like protein 4) (human, UniProt Q9NR61 27-524).
T3 construct: Bought recombinant protein (R&D Systems Cat#1506-D4/CF); also called rHuman DLL4; Delta-like 4
In words: ELISA on plate-coated DLL4, absorbance at 450 nm, signal minus noise.

Test [9] addresses T3, Recombinant Human DLL4 (delta-like …). In words: ECL (MSD) multispot binding assay, immobilized DLL4, 10 nM Fab, signal over blank.

B1: Fab VH5-51_IGHD5-18*01>3_IGHJ4*01 G100K/G104T (H:KT) & V3-4_IGLJ1*01 (Fab, V domains shown)
VH: EVQLVQSGAEVKKPGESLKISCKGSGYSFTSYWIGWVRQMPGKGLEWMGIIYPGDSDTRYSPSFQGQVTISADKSISTAYLQWSSLKASDTAMYYCARRKYSYTYDYFDYWGQGTLVTVSS
VL: QTVVTQEPSFSVSPGGTVTLTCGLSSGSVSTSYYPSWYQQTPGQAPRTLIYSTNTRSSGVPDRFSGSILGNKAALTITGAQADDESDYYCVLYMGSGISYVFGTGTKVTVL
notes: Fab expressed in E. coli; Plasmid A adds CH1 with His6 and Flag tags to the heavy chain; Plasmid E adds lambda CL to the light chain; also called H:KT & L:wt; KT double mutant
For the molecule B1, the “ECL signal” value in [1] turned out to be 9360. Besides, the ELISA signal turned out to be 0.014 in test [2], 0.042 in test [3], 0.018 in [4] and 0.019 in [5].

B2: Fab VH5-51_IGHD5-18*01>3_IGHJ4*01 G100K/G104T (H:KT) & V3-4_IGLJ1*01 M94R/S96M (L:RM) (Fab, V domains shown)
VH: EVQLVQSGAEVKKPGESLKISCKGSGYSFTSYWIGWVRQMPGKGLEWMGIIYPGDSDTRYSPSFQGQVTISADKSISTAYLQWSSLKASDTAMYYCARRKYSYTYDYFDYWGQGTLVTVSS
VL: QTVVTQEPSFSVSPGGTVTLTCGLSSGSVSTSYYPSWYQQTPGQAPRTLIYSTNTRSSGVPDRFSGSILGNKAALTITGAQADDESDYYCVLYRGMGISYVFGTGTKVTVL
notes: Fab expressed in E. coli; Plasmid A adds CH1 with His6 and Flag tags to the heavy chain; Plasmid E adds lambda CL to the light chain; also called H:KT & L:RM; G100K/G104T & M94R/S96M
Consider B2, for which the ELISA signal in test [2] was 0.007; in test [3], 0.023; in test [4] it was 0.087; in test [5], 0.

B3: Fab VH5-51_IGHD5-18*01>3_IGHJ4*01 G100K/G104T G24T/S28R/G35V (H:KT TRV) & V3-4_IGLJ1*01 M94R/S96M (L:RM) (Fab, V domains shown)
VH: EVQLVQSGAEVKKPGESLKISCKTSGYRFTSYWIVWVRQMPGKGLEWMGIIYPGDSDTRYSPSFQGQVTISADKSISTAYLQWSSLKASDTAMYYCARRKYSYTYDYFDYWGQGTLVTVSS
VL: QTVVTQEPSFSVSPGGTVTLTCGLSSGSVSTSYYPSWYQQTPGQAPRTLIYSTNTRSSGVPDRFSGSILGNKAALTITGAQADDESDYYCVLYRGMGISYVFGTGTKVTVL
notes: Fab expressed in E. coli; Plasmid A adds CH1 with His6 and Flag tags to the heavy chain; Plasmid E adds lambda CL to the light chain; also called H:KT TRV & L:RM; G100K/G104T G24T/S28R/G35V & M94R/S96M
For B3, the ELISA signal in test [2] was 0.028; in [3], 0.062; in test [4] it was 0.122; in [5], 0.006.

B4: Fab VH5-51_IGHD5-18*01>3_IGHJ4*01 G100K/G104T G24L/S28R/G35V (H:KT LRV) & V3-4_IGLJ1*01 (Fab, V domains shown)
VH: EVQLVQSGAEVKKPGESLKISCKLSGYRFTSYWIVWVRQMPGKGLEWMGIIYPGDSDTRYSPSFQGQVTISADKSISTAYLQWSSLKASDTAMYYCARRKYSYTYDYFDYWGQGTLVTVSS
VL: QTVVTQEPSFSVSPGGTVTLTCGLSSGSVSTSYYPSWYQQTPGQAPRTLIYSTNTRSSGVPDRFSGSILGNKAALTITGAQADDESDYYCVLYMGSGISYVFGTGTKVTVL
notes: Fab expressed in E. coli; Plasmid A adds CH1 with His6 and Flag tags to the heavy chain; Plasmid E adds lambda CL to the light chain; also called H:KT LRV & L:wt; G100K/G104T G24L/S28R/G35V & parent
Consider B4, for which the ELISA signal in test [2] was 0; in [3] it was 0.005; in test [4], 0.027; in test [5] it was 0.006.

B5: Fab VH5-51_IGHD5-18*01>3_IGHJ4*01 G100K/G104T S28R (H:KT S28R) & V3-4_IGLJ1*01 (Fab, V domains shown)
VH: EVQLVQSGAEVKKPGESLKISCKGSGYRFTSYWIGWVRQMPGKGLEWMGIIYPGDSDTRYSPSFQGQVTISADKSISTAYLQWSSLKASDTAMYYCARRKYSYTYDYFDYWGQGTLVTVSS
VL: QTVVTQEPSFSVSPGGTVTLTCGLSSGSVSTSYYPSWYQQTPGQAPRTLIYSTNTRSSGVPDRFSGSILGNKAALTITGAQADDESDYYCVLYMGSGISYVFGTGTKVTVL
notes: Fab expressed in E. coli; Plasmid A adds CH1 with His6 and Flag tags to the heavy chain; Plasmid E adds lambda CL to the light chain; also called H:KT S28R & L:wt; G100K/G104T S28R & parent
On to B5, for which the ELISA signal worked out at 0 in test [2], 0.003 in [3], 0.009 in test [4] and 0 in test [5].

B6: Fab VH5-51_IGHD5-18*01>3_IGHJ4*01 G100K/G104T G24T/S28R/G35V (H:KT TRV) & V3-4_IGLJ1*01 (Fab, V domains shown)
VH: EVQLVQSGAEVKKPGESLKISCKTSGYRFTSYWIVWVRQMPGKGLEWMGIIYPGDSDTRYSPSFQGQVTISADKSISTAYLQWSSLKASDTAMYYCARRKYSYTYDYFDYWGQGTLVTVSS
VL: QTVVTQEPSFSVSPGGTVTLTCGLSSGSVSTSYYPSWYQQTPGQAPRTLIYSTNTRSSGVPDRFSGSILGNKAALTITGAQADDESDYYCVLYMGSGISYVFGTGTKVTVL
notes: Fab expressed in E. coli; Plasmid A adds CH1 with His6 and Flag tags to the heavy chain; Plasmid E adds lambda CL to the light chain; also called H:KT TRV & L:wt; G100K/G104T G24T/S28R/G35V & parent
For B6, the ELISA signal in test [2] was 0; in test [3] it was 0.023; in [4] it was 0.054; in test [5], 0.002.

B7: Fab VH5-51_IGHD5-18*01>3_IGHJ4*01 G100K/G104T G24A/S28R/G35V (H:KT ARV) & V3-4_IGLJ1*01 (Fab, V domains shown)
VH: EVQLVQSGAEVKKPGESLKISCKASGYRFTSYWIVWVRQMPGKGLEWMGIIYPGDSDTRYSPSFQGQVTISADKSISTAYLQWSSLKASDTAMYYCARRKYSYTYDYFDYWGQGTLVTVSS
VL: QTVVTQEPSFSVSPGGTVTLTCGLSSGSVSTSYYPSWYQQTPGQAPRTLIYSTNTRSSGVPDRFSGSILGNKAALTITGAQADDESDYYCVLYMGSGISYVFGTGTKVTVL
notes: Fab expressed in E. coli; Plasmid A adds CH1 with His6 and Flag tags to the heavy chain; Plasmid E adds lambda CL to the light chain; also called H:KT ARV & L:wt; G100K/G104T G24A/S28R/G35V & parent
On to B7, for which the ELISA signal was 0.002 in [2], 0.025 in test [3], 0.054 in [4] and 0.008 in test [5].

B8: Fab VH1-46_IGHD6-6*01_IGHJ1*01 & L6_IGKJ1*01 (Fab, V domains shown)
VH: QVQLVQSGAEVKKPGASVKVSCKASGYTFTSYYMHWVRQAPGQGLEWMGIINPSGGSTSYAQKFQGRVTMTRDTSTSTVYMELSSLRSEDTAVYYCAREEYSSSSAEYFQHWGQGTLVTVSS
VL: not shown
notes: Germline Fab made in E. coli: VH in Plasmid A (CH1, His6 and Flag tags), kappa VL in Plasmid C (kappa CL); also called parental; wildtype
With B8, the Signal/Noise in test [6] is 3.1. For the same molecule, in test [7], the equilibrium dissociation constant (Kd) was 730 nM, the koff was determined as 0.101 s⁻¹ and the kon stood at 163000 M⁻¹ s⁻¹.

B9: Fab VH1-46_IGHD6-6*01_IGHJ1*01 S102A/S103P/S104F/H111F S84G & L6_IGKJ1*01 (Fab, V domains shown)
VH: QVQLVQSGAEVKKPGASVKVSCKASGYTFTSYYMHWVRQAPGQGLEWMGIINPSGGSTSYAQKFQGRVTMTRDTSTSTVYMELGSLRSEDTAVYYCAREEYAPFSAEYFQFWGQGTLVTVSS
VL: not shown
notes: Tested as Fab expressed in E. coli; also called APFF S84G
Turning to B9, the “ELISA (Signal-Noise)” value in test [8] came out at 0.53. The “Signal/Blank [10 nM Fab]” value in test [9] amounted to 346.

What is called Kd is the equilibrium constant for the complex coming apart. The koff is a measure of how fast the partners let go of each other. A word on the kon: it is the second-order rate constant of association.
